Source: patent publication US20220175942A1 (OXFORD UNIVERSITY INNOVATION, published 2022)

T1: CCL25_HUMAN (human, UniProt O15444 24-150)
T1 construct: Biotinylated (detected with streptavidin-Alexa647) in yeast display; AlexaFluor 647 labelled (Almac) in thermophoresis
T1 sequence: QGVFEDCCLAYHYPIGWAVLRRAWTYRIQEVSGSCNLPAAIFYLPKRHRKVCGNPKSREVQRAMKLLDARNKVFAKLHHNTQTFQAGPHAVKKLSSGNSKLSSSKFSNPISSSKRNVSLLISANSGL

T2: CCL5_HUMAN (human, UniProt P13501 24-91)
T2 construct: Biotinylated (detected with streptavidin-Alexa647) in yeast display; AlexaFluor 647 labelled (Almac) in thermophoresis
T2 sequence: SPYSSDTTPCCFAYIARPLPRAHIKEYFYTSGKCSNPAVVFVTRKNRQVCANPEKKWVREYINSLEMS

T3: CXCL8_HUMAN (human, UniProt P10145 28-99)
T3 construct: Biotinylated (detected with streptavidin-Alexa647) in yeast display; AlexaFluor 647 labelled (Almac) in thermophoresis
T3 sequence: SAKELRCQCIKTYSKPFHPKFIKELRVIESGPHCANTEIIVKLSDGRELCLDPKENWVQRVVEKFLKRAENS

T4: CCL17_HUMAN (human, UniProt Q92583 24-94)
T4 construct: Biotinylated (detected with streptavidin-Alexa647) in yeast display; AlexaFluor 647 labelled (Almac) in thermophoresis
T4 sequence: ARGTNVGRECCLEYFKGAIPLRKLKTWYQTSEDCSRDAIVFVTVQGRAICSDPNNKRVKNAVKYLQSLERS

T5: CCL3_HUMAN (human, UniProt P10147 24-92)
T5 construct: Biotinylated (detected with streptavidin-Alexa647) in yeast display; AlexaFluor 647 labelled (Almac) in thermophoresis
T5 sequence: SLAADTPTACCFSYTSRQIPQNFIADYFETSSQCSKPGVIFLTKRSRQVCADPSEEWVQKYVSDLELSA

T6: CXCL10_HUMAN (human, UniProt P02778 22-98)
T6 construct: Biotinylated (detected with streptavidin-Alexa647) in yeast display; AlexaFluor 647 labelled (Almac) in thermophoresis
T6 sequence: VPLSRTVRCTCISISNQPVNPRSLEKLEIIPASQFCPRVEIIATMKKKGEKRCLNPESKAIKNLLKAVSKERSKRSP

T7: P467_RHIPU (Rhipicephalus pulchellus, UniProt L7M8Z8 22-127)
T7 construct: Tick evasin; also called Evasin
T7 sequence: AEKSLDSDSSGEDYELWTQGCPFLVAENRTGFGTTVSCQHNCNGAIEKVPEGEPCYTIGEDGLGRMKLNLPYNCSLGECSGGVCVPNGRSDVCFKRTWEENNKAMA

T8: P546_AMBCA (Amblyomma cajennense, UniProt A0A023FBW7 22-118)
T8 construct: Tick evasin; also called Evasin
T8 sequence: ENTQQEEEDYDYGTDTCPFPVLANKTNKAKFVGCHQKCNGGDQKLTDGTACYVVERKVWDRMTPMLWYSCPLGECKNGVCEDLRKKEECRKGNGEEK

T9: CCL8_HUMAN (human, UniProt P80075 24-99)
T9 construct: Biotinylated (detected with streptavidin-Alexa647) in yeast display; AlexaFluor 647 labelled (Almac) in thermophoresis
T9 sequence: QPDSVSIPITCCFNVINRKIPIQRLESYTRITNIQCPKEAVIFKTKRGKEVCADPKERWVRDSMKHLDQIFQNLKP

T10: P1243_AMBAM (Amblyomma americanum, UniProt A0A0C9S461 26-123)
T10 construct: Tick evasin; also called Evasin
T10 sequence: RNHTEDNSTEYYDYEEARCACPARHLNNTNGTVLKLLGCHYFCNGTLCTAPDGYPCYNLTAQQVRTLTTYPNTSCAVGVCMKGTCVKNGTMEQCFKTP

T11: P991_AMBCA (Amblyomma cajennense, UniProt A0A023FFD0 29-136)
T11 construct: Tick evasin; also called Evasin
T11 sequence: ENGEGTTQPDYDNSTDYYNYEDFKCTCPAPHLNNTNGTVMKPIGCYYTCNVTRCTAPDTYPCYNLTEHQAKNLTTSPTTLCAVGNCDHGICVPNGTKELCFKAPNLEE

T12: P1182_AMBMA (Amblyomma maculatum, UniProt G3MJ83 27-115)
T12 construct: Tick evasin; also called Evasin
T12 sequence: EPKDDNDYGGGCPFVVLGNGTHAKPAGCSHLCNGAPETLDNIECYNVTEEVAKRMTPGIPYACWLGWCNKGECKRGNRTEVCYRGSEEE

B1: P1220_IXORI (other)
chain: GSTPSAMKTEDILKVLGSTSSLENHTDSSHCRYQELLDITKNIENAGFLAINCQRSCPNGKQTMVEGYGCIFKIKHATKRGKVKVKEGSCRKGACVRGSTRPPWRLLVLLGESKEEEFL
notes: Tick evasin; also called Evasin
B2: P943_IXORI (other)
chain: RSKQPTASQSSKNSIKAEFCDTNCTQGTNGAWSGCSEGCFCVHVGNNTKGRCMKLSSDYDYTTQ
notes: as for B1
B3: P1146_IXORI (other)
chain: GPDTKGDEESDENELFTVEYCGTNCTQLENGSWTPCSGNNGNCRCFHESDKTVGLCLSTEYTDFSEYPDPNSSEIIAAAPLPRERLIQ
notes: as for B1
B4: P1011_AMBTR (other)
chain: EKDTPKNIPGCEDAGTTAAPPADNPKHYAVYTDKNGCTFKVIGTWMTKEDHRRLPVSLRRVRASSGRVKLPASCQKICKHSVKKFPEGTPCRLVTRDPIKGKNHIKNGCIRGYCSSGVCVSDNRSISCYVLPNNTELTSPSGSFAE
notes: as for B1
B5: P1005_AMBMA (other)
chain: EKDTPKNIPGCGDTGTTAAPPADNPKHFAVYTDKHGCTIKVIGTWMTKEDHSRLPVSLRRVRASSGRVMLPASCQKICNDTVKNFPEGTPCRLVTGDPIKGKNHIKDGCIRGYCSSGVCVSDKRNISCYVPPN
notes: as for B1
B6: P1219_IXORI (other)
chain: ASLAKETEDTTLPARALVDSPDSDNCSSPQLPYFDELTYMPLGFLAVNCTKTCPVGKNGTVVNGNKCIVTWSILDVSTITVLVGSCKNGYCISDGSSECRNITLAGEDSQEEEEEAEEDEEEDDGDEEEDEEEDEEENDDD
notes: as for B1
B7: CCL1_HUMAN (ligand)
chain: KSMQVPFSRCCFSFAEQEIPLRAILCYRNTSSICSNEGLIFKLKRGKEACALDTVGWVQRHRKMLRHCPSKRK
notes: Biotinylated (detected with streptavidin-Alexa647) in yeast display; AlexaFluor 647 labelled (Almac) in thermophoresis
B8: P1283_IXORI (other)
chain: KEPEDTTLPPGALVDSPDSDNCSSPHLPYFDETTNMWMGFLAVNCTKKCPVGKHVTVVDGNKCIGTWSFLDELTITVLVGSCKDGFCETDGSSECRNITLAEEDSQEEEGAAAEEEDEEDEEDEEEEEAEEEREDDHDDA
notes: as for B1
B9: P698_RHISA (other)
chain: NEDDSSDYYDASPMNCSSMSVNSTMGWLSMNCTMSCNGTTFPLSNSTHCFHSYTNLTVQSRMETMTYNCSVGTCSNGTCVENGTTTTCW
notes: as for B1
B10: CCL19_HUMAN (ligand)
chain: GTNDAEDCCLSVTQKPIPGYIVRNFHYLLIKDGCRVPAVVFTTLRGRQLCAPPDQPWVERIIQRLQRTSAKMKRRSS
notes: as for B7
B11: P1063_AMBTR (other)
chain: QSEVGKNVPGCGDTETLEAPPQEKPPYYEYKDEEGCTQKVLESWFQAGERSTGRGQKKRGHGRRPSRVLRTVDCRKNCTVGITALPDGHLCLVPRGDPFTRGGAIKYGCYLGDCASGHCQHRYETVSCRLPAPDTTAKPYYVTPEK
notes: as for B1
B12: CCL18_HUMAN (ligand)
chain: AQVGTNKELCCLVYTSWQIPQKFIVDYSETSPQCPKPGVILLTKRGRQICADPNKKWVQKYISDLKLNA
notes: as for B7
B13: CCL11_HUMAN (ligand)
chain: not shown
notes: as for B7
B14: CXCL11_HUMAN (ligand)
chain: FPMFKRGRCLCIGPGVKAVKVADIEKASIMYPSNNCDKIEVIITLKENKGQRCLNPKSKQARLIIKKVERKNF
notes: as for B7
B15: CCL22_HUMAN (ligand)
chain: GPYGANMEDSVCCRDYVRYRLPLRVVKHFYWTSDSCPRPGVVLLTFRDKEICADPRVPWVKMILNKLSQ
notes: as for B7
B16: P1030_AMBPA (other)
chain: GPPSIPGNESIPGCGDAGTTTAPEDNPKHYGTLTDKKGCTLPIIGTWMTAVDHQHLQGTRGERRGPTGKVNLPASCRKNCHGRQEILRDGIPCRKVVGNPKGSKKHLKSGCLRGKCLAGQCVNDGRRISCYVPRNITDTEPTPGLLAE
notes: Tick evasin

How the values were obtained:
CCL25_HUMAN [1] = target: T1, CCL25_HUMAN; test: yeast surface display library FACS screen, labelled chemokine (col C: isolated in)
CCL5_HUMAN [2] = target: T2, CCL5_HUMAN; test: as above
CXCL8_HUMAN [3] = target: T3, CXCL8_HUMAN; test: as above
CCL18_HUMAN = target: B12; test: yeast surface display FACS re-test, >3 fold MFI over control (col D);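 further: yeast displaying putative tick Evasins stained with biotinylated human chemokine plus streptavidin-Alexa647, flow cytometry, positive when MFI exceeds 3-fold the empty-vector or no-chemokine background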
CCL17_HUMAN [4] = target: T4, CCL17_HUMAN; test: as above
CCL25_HUMAN [5] = target: T1, CCL25_HUMAN; test: as above
CCL5_HUMAN [6] = target: T2, CCL5_HUMAN; test: as above
CCL11_HUMAN = target: B13; test: yeast surface display library FACS screen, labelled chemokine (col C: isolated in)
CCL19_HUMAN [7] = target: B10; test: yeast surface display FACS re-test, >3 fold MFI over control (col D);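 further: yeast displaying putative tick Evasins stained with biotinylated human chemokine plus streptavidin-Alexa647, flow cytometry, positive when MFI exceeds 3-fold the empty-vector or no-chemokine background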
CXCL8_HUMAN [8] = target: T3, CXCL8_HUMAN; test: as above
CCL3_HUMAN = target: T5, CCL3_HUMAN; test: as above
CCL1_HUMAN = target: B7; test: yeast surface display library FACS screen, labelled chemokine (col C: isolated in)
CCL19_HUMAN [9] = target: B10; test: as above
CXCL10_HUMAN = target: T6, CXCL10_HUMAN; test: as above
P467_RHIPU = target: T7, P467_RHIPU; test: as above
P546_AMBCA = target: T8, P546_AMBCA; test: microscale thermophoresis, AlexaFluor 647 labelled chemokine
CCL8_HUMAN = target: T9, CCL8_HUMAN; test: yeast surface display FACS re-test, >3 fold MFI over control (col D);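 further: yeast displaying putative tick Evasins stained with biotinylated human chemokine plus streptavidin-Alexa647, flow cytometry, positive when MFI exceeds 3-fold the empty-vector or no-chemokine background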
P1243_AMBAM [10] = target: T10, P1243_AMBAM; test: as above
P991_AMBCA = target: T11, P991_AMBCA; test: yeast surface display library FACS screen, labelled chemokine (col C: isolated in)
P1182_AMBMA = target: T12, P1182_AMBMA; test: as above
P1243_AMBAM [11] = target: T10, P1243_AMBAM; test: as above
CCL20_HUMAN = target: T13, CCL20_HUMAN (human, UniProt P78556 27-96); test: yeast surface display FACS re-test, >3 fold MFI over control (col D);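 further: yeast displaying putative tick Evasins stained with biotinylated human chemokine plus streptavidin-Alexa647, flow cytometry, positive when MFI exceeds 3-fold the empty-vector or no-chemokine background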
T13 construct: Biotinylated (detected with streptavidin-Alexa647) in yeast display; AlexaFluor 647 labelled (Almac) in thermophoresis

CCL17_HUMAN [12] = target: T4, CCL17_HUMAN; test: yeast surface display library FACS screen, labelled chemokine (col C: isolated in)

Sequence of CCL11_HUMAN (P51671 24-97 limits assumed): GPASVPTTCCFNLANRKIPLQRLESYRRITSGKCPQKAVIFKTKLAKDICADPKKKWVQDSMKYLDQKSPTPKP
T13 sequence (P78556 27-96 limits assumed): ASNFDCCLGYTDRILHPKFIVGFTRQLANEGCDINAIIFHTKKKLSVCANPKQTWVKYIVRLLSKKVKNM

B1: binds (CCL25_HUMAN [1]).

B2: binds (CCL5_HUMAN [2]).

B3: binds (CXCL8_HUMAN [3]).

B4: binds (CCL18_HUMAN); binds (CCL17_HUMAN [4]); binds (CCL25_HUMAN [5]). B4: binds (CCL5_HUMAN [6]); binds (CCL11_HUMAN).

B5: binds (CCL19_HUMAN [7]); binds (CXCL8_HUMAN [8]); binds (CCL3_HUMAN). B5: binds (CCL17_HUMAN [4]); binds (CCL5_HUMAN [6]); binds (CCL11_HUMAN). B5: binds (CCL1_HUMAN); binds (CCL25_HUMAN [1]).

B6: binds (CCL19_HUMAN [9]); binds (CXCL10_HUMAN).

For B7, the binding result (P467_RHIPU) was “binds” and the Kd (P546_AMBCA) was 0.149 µM.

B8: binds (CXCL10_HUMAN).

B9: binds (CCL8_HUMAN).

B10: binds (P1243_AMBAM [10]); binds (P991_AMBCA).

B11: binds (CCL5_HUMAN [2]).

For B12, the binding result (P1182_AMBMA) was “binds”, the binding result (P1243_AMBAM [11]) was “binds” and the Kd (P546_AMBCA) was 0.086 µM.

Binder B13 has a Kd (P546_AMBCA) of 0.5 µM.

B14: no binding (P546_AMBCA).

B15 showed a Kd (P546_AMBCA) of 0.175 µM.

B16: binds (CCL20_HUMAN); binds (CXCL8_HUMAN [8]); binds (CCL3_HUMAN). B16: binds (CCL8_HUMAN); binds (CCL18_HUMAN); binds (CCL5_HUMAN [6]). B16: binds (CCL11_HUMAN); binds (CCL17_HUMAN [12]).
